Legend:
Assay in all cases: pull-down binding Z-score (relative to library population); higher = stronger binding
[1] = tested on: G-clamp-N3 (biotin conjugate); settings: RNA library: Library-1 (pre-miRNA loops + repeats)
In short: (§1)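 A heat-folded, dye-end-labelled (Cy5 or Cy3) RNA library (1 μg, phosphate/NaCl/KCl buffer) was exposed for 60 min at 25 °C to streptavidin beads holding 100 pmol of biotin-conjugated small molecule. RNA retained on the beads was eluted in hot SDS and hybridised to a DNA barcode microarray for 20 h at 55.5 °C. Binding scores were Z-scores against the library mean and standard deviation, calculated after subtracting beads alone and taking trimmed means of replicate probes.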

[2] = tested on: TO-3-N3 (biotin conjugate); settings: RNA library: Library-2
In short: as §1

[3] = tested on: TO-3-N3-2 (biotin conjugate); settings: RNA library: Library-2
In short: as §1

TO-N3 (biotin conjugate) = settings: RNA library: Library-2
In short: as §1

[4] = tested on: TO-N3-2 (biotin conjugate); settings: RNA library: Library-2
In short: as §1

Row | Sequence | pull-down binding Z-score [1] | pull-down binding Z-score [2] | pull-down binding Z-score [3] | pull-down binding Z-score (TO-N3 (biotin conjugate)) | pull-down binding Z-score [4]
1 | GUGAGGUAUUUUAGUAACAUCAC [hsa-mir-125b-2] | 0.629 | -0.818 | -0.536 | -0.969 | -0.794
2 | CUGAGAGUGUCAUGGUGGAGCCUCCG [hsa-mir-4784] | 0.795 | 0.121 | -0.0723 | 0.735 | 1.55
3 | CGCUGAUGUGCAUUCAACUCAUUCUCAGCA [hsa-mir-1468] | -1.2 | -0.116 | -0.226 | 0.0154 | 0.000597
4 | AGUAUUUUAAUCAUAGAUUGUAUUUAGUUAGUUUUUAAUACU [hsa-mir-4637] | -0.0232 | -0.732 | 0.157 | -0.955 | -0.965
5 | CUGAGCUGGGUACUGCCUGUUCAG [hsa-mir-589] | 0.263 | 0.697 | 0.311 | 0.518 | 0.0632
6 | GGAGCUGGCUGCUGGCCUCAGUUCU [hsa-mir-5001] | -1.38 | -0.269 | -0.449 | 0.0865 | 1.05
7 | GUGGCUUGUGGCUGAGUGUCACGCUGC [hsa-mir-6068] | 0.217 | -0.567 | -0.233 | -0.254 | 0.225
8 | GUUUGGGUGCGGUUGGGAGUCUCUAAU [hsa-mir-200c] | 0.194 | 1.66 | 1.39 | 1.67 | 1.41
9 | CUUAGUAGGUGAUAGCAUGACUGAC [hsa-mir-5002] | 1.66 | 0.324 | 0.356 | 0.958 | 1.16
10 | GAGAGAGUGCACAGCCAGCUCAGGGAUUAAAGCUCUUUCUCUCUCUCUC [hsa-mir-7110] | -0.385 | -0.181 | 0.535 | 0.311 | 1.09
11 | CAGUGGCAUCUGUCAUUG [hsa-mir-4663] | -0.635 | -0.159 | -0.425 | -0.508 | -0.784
12 | GGGCAGGGAGGGCAGGGCAGGCUCUGGGGUGGGGGGUCUGUGAGUCAGCCACGGCUC [hsa-mir-4516] | 2.89 | 6.78 | 7.72 | 6.16 | 4.69
13 | CUGUUCAGGACUCCCAAAUUGUACAG [hsa-mir-199b] | -0.893 | 1.12 | 0.385 | 1 | 0.347
14 | UGGGAGGUAAGAGCUCUUCACCCUUCA [hsa-mir-197] | -0.817 | -0.46 | -0.132 | -0.119 | 0.638
15 | CCAGGCCCCACGGAGAACCAGGGCACCUGG [hsa-mir-8058] | 0.303 | -0.288 | -0.353 | -0.188 | 0.492
16 | UACUAACAGCACUGGAGGGUGUA [hsa-mir-142] | 2.68 | -0.0529 | 0.107 | 0.114 | 0.533
17 | UGAGGUUUACUAUGGAACCUCA [hsa-mir-4465] | 0.714 | -0.566 | -0.526 | -0.958 | -1.53
18 | CAAUCAUGUAUAACUAAAUUUGAUUG [hsa-mir-514a-2_514a-3] | 0.276 | -1.04 | -0.513 | -1.55 | -1.74
19 | CGAUAAACCCCUAAAUAGGGACUUUCCCG [hsa-mir-484] | -0.934 | -0.473 | -0.266 | -0.511 | -0.157

Row | Sequence | pull-down binding Z-score [1] | pull-down binding Z-score [2] | pull-down binding Z-score [3] | pull-down binding Z-score (TO-N3 (biotin conjugate)) | pull-down binding Z-score [4]
20 | AGCGCGGCGACCGUAACUCCU [hsa-mir-1237] | -0.629 | 0.152 | 0.313 | 0.724 | 1.65
21 | ACCCAGGACUCUUUCAUGACCA [hsa-mir-665] | -0.54 | -0.0474 | 0.144 | 0.101 | 0.384
22 | CCCGAGCUGGGCAGCAUGAAGGGCCUCGGG [hsa-mir-486-2] | 3.94 | 1.74 | 0.949 | 1.64 | 1.49
23 | UGGUAUCCUGACCG [hsa-mir-1973] | -0.747 | 0.627 | -0.269 | 0.408 | 0.287
24 | UUGAGAACCAG [hsa-mir-4328] | -0.606 | 1.74 | 0.215 | 1.79 | 1.04
25 | UAAGUUGUGAUCAUACCA [hsa-mir-1273g] | -1.51 | -0.424 | -0.0944 | -0.24 | 0.165
26 | CAUGUUAAGUGUUGUCCUACAG [hsa-mir-5087] | -0.819 | -0.483 | -0.142 | -0.368 | 0.127
27 | GGAUGUGUUGACCCCUGAAGUGGUUCUGAUGACCUUUCC [hsa-mir-6883] | -1.11 | 0.00863 | -0.03 | 0.387 | 0.938
28 | AGAUGAAAUGCCUUUGAUUU [hsa-mir-3658] | -1.49 | -0.497 | -0.388 | -0.715 | -0.505
29 | GGGUGAGAGUGCUUUCUGAAUGCAGUGCACCC [hsa-mir-500b] | 0.8 | 0.297 | 0.131 | 0.52 | 0.985
30 | CAGAGGUCCCACAGCAGGGCUGGAAAGCACACCUGUGGGACUUCUG [hsa-mir-3922] | 0.395 | 0.224 | 0.0101 | 0.231 | -0.164
31 | AAGGCCAGGACCCGCUGACCCAU [hsa-mir-6872] | -1.17 | 0.148 | -0.0792 | 0.411 | 0.567
32 | AGCCCUGUUGUUGUAAGAUAGUGU [hsa-mir-550a-1] | -0.249 | -0.325 | -0.124 | -0.00359 | 0.346
33 | UAUGUGAUUCUACUGCUCACUCAUAUA [hsa-mir-135a-1] | -0.239 | 0.402 | -0.191 | 0.212 | -0.519
34 | CUGCAGAGACGAGGCCUGUAG [hsa-mir-5682] | 0.122 | 0.688 | 0.149 | 0.828 | 0.886
35 | UGGAUUUGAAAUGGUCCCACUCCUGACGAUCCU [hsa-mir-6748] | -0.524 | -0.358 | -0.155 | -0.0778 | 0.335
36 | GGAUCCCAGAUCAAACCAGGCCC [hsa-mir-331] | -0.859 | -0.36 | -0.114 | -0.177 | 0.63
37 | CACCAAAGGGUUAAGGGUUUGCUCUGGAG [hsa-mir-4653] | -0.264 | -0.018 | 0.0957 | 0.124 | 0.14

Reference: the supplement of paper PMC11865577
